Test results as given in the supplement of paper PMC10065799, “High-throughput profiling of sequence recognition by tyrosine kinases and SH2 domains using bacterial peptide display” (eLife, 2023).

Legend:
AncSZ = test: phosphorylation enrichment, bacterial display (enrichment ratio); higher = better substrate or ligand; peptides without Tyr show the background
EPHB1 = EPHB1 (UniProt P54762); test: as above
EPHB2 = EPHB2 (UniProt P29323); test: as above
FGFR1 = FGFR1 (UniProt P11362); test: as above
FGFR3 = FGFR3 (UniProt P22607); test: as above
Fer (mouse) = test: as above
Fes = Fes (UniProt P07332); test: as above
Fyn = Fyn (UniProt P06241); test: as above
Hck = Hck (UniProt P08631); test: as above
Jak2 = Jak2 (UniProt O60674); test: as above
MERTK = MERTK (UniProt Q12866); test: as above
c-Abl (mouse) = test: as above
c-Src = test: as above
Grb2 SH2 = Grb2 SH2 (UniProt P62993); test: SH2 binding enrichment of the phosphorylated peptide, bacterial display (enrichment ratio); higher = better substrate or ligand; peptides without Tyr show the background
SHP2-C SH2 = test: as above
c-Src SH2 = test: as above
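For SH2 binding enrichment of the phosphorylated peptide, bacterial display in this document: peptide library displayed on the E. coli surface as eCPX fusions, selected cells deep-sequenced, score is each peptide's frequency after selection divided by its frequency in the input.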
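For phosphorylation enrichment, bacterial display in this document: 11-residue human phosphosite peptides and single-mutation variants displayed on the E. coli surface, counted by deep sequencing, each peptide's frequency after selection divided by its frequency in the unselected input library; frequency after pTyr selection over input frequency; kinase dosed for 20-30% of maximal phosphorylation in three min.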

Sequence of EPHB2 (P29323 whole entry, looked up): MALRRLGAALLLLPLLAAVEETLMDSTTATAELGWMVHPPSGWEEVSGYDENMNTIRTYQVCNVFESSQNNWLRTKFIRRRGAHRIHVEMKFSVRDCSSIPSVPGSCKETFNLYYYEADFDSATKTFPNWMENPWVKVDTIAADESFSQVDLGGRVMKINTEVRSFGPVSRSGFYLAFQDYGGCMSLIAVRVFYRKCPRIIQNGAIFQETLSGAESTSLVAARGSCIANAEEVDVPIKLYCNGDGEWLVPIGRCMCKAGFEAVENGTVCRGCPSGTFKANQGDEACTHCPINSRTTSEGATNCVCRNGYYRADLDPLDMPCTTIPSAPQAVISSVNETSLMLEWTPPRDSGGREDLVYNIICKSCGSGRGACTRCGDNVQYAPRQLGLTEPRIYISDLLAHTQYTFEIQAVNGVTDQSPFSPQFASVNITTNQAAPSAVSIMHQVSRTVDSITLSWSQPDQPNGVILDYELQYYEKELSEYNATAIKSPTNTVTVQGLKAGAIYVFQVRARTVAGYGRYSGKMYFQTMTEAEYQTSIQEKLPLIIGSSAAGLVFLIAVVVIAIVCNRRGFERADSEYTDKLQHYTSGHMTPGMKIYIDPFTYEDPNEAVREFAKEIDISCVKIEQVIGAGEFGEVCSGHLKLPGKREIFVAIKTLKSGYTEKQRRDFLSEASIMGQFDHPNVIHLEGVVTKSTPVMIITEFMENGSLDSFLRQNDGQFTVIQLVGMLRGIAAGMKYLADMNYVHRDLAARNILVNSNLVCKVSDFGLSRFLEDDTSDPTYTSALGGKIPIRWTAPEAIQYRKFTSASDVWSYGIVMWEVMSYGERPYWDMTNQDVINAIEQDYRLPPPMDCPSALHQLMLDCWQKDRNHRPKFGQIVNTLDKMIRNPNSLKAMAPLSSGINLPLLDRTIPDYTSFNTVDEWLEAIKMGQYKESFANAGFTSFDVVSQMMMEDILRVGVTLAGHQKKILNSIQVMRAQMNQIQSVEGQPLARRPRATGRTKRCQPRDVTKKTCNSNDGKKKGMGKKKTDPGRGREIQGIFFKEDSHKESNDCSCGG
Sequence of FGFR3 (P22607 whole entry, looked up): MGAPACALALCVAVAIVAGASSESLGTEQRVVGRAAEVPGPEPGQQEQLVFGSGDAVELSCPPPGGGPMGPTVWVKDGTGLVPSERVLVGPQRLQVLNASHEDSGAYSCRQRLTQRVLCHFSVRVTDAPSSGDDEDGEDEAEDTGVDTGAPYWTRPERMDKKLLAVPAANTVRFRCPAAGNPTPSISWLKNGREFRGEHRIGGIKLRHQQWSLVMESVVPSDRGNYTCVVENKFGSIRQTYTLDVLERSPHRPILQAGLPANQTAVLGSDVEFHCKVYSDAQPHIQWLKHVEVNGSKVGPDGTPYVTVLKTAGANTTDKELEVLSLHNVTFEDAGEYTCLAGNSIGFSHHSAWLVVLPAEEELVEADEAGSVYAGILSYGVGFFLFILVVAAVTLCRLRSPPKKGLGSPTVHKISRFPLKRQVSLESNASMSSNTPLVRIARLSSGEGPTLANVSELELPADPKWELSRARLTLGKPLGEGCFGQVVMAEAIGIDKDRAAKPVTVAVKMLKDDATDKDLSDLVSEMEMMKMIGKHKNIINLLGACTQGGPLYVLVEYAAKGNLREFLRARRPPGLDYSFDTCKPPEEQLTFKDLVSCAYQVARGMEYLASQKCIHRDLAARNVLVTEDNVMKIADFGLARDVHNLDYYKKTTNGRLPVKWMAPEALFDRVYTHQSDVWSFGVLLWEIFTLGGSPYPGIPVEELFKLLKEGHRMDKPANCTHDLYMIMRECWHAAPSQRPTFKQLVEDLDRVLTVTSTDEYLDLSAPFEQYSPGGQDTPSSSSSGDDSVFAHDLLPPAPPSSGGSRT
Sequence of Fyn (P06241 whole entry, looked up): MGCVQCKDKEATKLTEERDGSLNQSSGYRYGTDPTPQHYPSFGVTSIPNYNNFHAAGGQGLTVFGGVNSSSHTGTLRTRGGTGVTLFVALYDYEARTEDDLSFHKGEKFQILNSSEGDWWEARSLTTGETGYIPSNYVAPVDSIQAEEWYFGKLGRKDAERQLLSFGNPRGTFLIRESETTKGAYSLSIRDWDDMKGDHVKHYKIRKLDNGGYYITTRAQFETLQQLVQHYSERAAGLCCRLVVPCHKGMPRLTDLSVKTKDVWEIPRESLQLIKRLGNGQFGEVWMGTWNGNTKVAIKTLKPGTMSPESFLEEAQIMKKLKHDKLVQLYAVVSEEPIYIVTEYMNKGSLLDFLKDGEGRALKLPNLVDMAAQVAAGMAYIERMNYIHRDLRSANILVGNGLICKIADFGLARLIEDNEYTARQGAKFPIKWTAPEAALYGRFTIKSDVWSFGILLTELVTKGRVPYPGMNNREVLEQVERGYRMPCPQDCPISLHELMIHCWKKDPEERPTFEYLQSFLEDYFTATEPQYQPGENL
Sequence of Jak2 (O60674 whole entry, looked up): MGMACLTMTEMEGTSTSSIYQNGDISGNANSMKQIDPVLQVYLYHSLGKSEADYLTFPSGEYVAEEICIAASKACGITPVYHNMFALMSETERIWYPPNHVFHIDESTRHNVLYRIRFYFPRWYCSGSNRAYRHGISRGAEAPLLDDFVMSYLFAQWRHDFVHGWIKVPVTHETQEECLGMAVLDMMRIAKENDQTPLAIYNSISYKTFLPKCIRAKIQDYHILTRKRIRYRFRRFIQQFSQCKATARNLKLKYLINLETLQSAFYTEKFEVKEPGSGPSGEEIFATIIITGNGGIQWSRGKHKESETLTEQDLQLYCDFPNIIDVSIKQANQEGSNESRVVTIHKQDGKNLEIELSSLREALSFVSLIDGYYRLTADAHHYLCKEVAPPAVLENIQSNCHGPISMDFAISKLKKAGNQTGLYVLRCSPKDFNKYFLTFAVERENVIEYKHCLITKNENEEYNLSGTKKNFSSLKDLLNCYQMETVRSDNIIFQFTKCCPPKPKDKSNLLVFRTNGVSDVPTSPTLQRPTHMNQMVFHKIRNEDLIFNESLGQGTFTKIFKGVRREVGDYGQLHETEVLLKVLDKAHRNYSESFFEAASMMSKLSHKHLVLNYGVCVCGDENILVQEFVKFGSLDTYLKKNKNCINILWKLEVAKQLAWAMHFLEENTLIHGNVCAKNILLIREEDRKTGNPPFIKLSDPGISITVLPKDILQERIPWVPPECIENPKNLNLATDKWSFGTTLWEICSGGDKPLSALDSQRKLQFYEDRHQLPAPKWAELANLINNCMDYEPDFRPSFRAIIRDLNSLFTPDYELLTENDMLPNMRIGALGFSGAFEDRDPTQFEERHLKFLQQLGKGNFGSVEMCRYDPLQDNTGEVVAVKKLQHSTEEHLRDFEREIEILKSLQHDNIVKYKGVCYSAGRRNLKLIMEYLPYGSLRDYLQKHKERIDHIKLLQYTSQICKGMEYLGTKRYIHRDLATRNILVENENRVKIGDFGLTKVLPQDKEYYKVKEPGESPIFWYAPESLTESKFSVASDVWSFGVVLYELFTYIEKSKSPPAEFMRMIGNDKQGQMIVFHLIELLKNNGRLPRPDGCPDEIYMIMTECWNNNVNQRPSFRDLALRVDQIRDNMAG
Sequence of Fes (P07332 whole entry, looked up): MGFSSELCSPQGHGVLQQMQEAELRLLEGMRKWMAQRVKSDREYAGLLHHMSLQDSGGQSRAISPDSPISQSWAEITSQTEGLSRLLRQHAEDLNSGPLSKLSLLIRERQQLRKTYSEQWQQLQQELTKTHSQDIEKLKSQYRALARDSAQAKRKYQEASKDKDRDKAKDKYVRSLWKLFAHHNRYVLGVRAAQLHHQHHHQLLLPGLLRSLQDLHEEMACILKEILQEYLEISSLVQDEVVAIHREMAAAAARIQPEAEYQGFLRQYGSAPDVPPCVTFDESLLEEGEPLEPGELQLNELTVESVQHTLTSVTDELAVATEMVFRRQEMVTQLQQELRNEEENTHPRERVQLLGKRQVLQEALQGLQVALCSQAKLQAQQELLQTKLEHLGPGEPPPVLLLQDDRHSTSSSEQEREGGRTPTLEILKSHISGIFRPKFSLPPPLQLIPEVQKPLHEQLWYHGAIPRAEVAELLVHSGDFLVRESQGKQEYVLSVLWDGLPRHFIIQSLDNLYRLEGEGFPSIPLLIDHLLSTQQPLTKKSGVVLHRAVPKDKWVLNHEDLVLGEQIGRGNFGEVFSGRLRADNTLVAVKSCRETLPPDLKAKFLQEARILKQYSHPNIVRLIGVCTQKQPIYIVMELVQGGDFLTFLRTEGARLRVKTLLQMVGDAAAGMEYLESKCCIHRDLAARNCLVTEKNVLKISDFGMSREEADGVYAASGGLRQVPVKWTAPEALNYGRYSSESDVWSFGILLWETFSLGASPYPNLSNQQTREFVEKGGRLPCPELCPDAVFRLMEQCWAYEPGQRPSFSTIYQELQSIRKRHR
Sequence of Hck (P08631 whole entry, looked up): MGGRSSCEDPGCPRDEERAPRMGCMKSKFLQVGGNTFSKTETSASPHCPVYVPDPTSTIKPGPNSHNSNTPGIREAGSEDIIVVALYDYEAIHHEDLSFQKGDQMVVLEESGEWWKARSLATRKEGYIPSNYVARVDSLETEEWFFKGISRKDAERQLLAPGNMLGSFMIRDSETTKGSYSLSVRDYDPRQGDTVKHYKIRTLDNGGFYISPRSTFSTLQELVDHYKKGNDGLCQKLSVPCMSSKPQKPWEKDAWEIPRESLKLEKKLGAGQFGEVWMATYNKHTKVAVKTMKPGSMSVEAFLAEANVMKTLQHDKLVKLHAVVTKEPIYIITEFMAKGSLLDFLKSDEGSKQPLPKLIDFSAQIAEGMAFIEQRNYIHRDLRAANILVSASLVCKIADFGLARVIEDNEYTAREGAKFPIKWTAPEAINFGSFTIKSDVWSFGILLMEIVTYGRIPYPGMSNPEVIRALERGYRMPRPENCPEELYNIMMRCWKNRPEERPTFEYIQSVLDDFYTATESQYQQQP

SH2 binding enrichment (Grb2 SH2) | SH2 binding enrichment (SHP2-C SH2) | SH2 binding enrichment (c-Src SH2) | Sequence | phosphorylation enrichment (AncSZ) | phosphorylation enrichment (EPHB1) | phosphorylation enrichment (EPHB2) | phosphorylation enrichment (FGFR1) | phosphorylation enrichment (FGFR3) | phosphorylation enrichment (Fer (mouse)) | phosphorylation enrichment (Fes) | phosphorylation enrichment (Fyn) | phosphorylation enrichment (Hck) | phosphorylation enrichment (Jak2) | phosphorylation enrichment (MERTK) | phosphorylation enrichment (c-Abl (mouse)) | phosphorylation enrichment (c-Src)
0.715 | 0.689 | 0.46 | MIRSAYALGGL [CPS1_Y590] | 0.54 | 0.358 | 0.435 | 0.392 | 0.473 | 0.32 | 0.534 | 0.41 | 0.386 | 0.597 | 0.449 | 0.417 | 0.384
0.913 | 0.872 | 0.509 | RSSGGYEPRGC [FUS_Y239_R244C] | 0.439 | 0.227 | 0.274 | 0.371 | 0.538 | 0.277 | 0.533 | 0.351 | 0.258 | 0.499 | 0.261 | 0.539 | 0.376
0.682 | 0.845 | 0.477 | MGSYNYLGFAW [SPTLC2_Y178_R183W] | 1.11 | 3.69 | 1.88 | 2.96 | 2.24 | 0.617 | 0.937 | 0.708 | 1.4 | 3.68 | 3.65 | 0.737 | 1.04
0.87 | 0.487 | 0.462 | LGNFNYEQRGA [API5_Y497] | 0.761 | 0.474 | 0.456 | 0.569 | 0.507 | 0.408 | 0.986 | 0.435 | 0.485 | 0.919 | 0.392 | 0.715 | 0.43
0.713 | 0.444 | 0.408 | RLEGVYGNNID [PTEN_Y46_R47G] | 0.404 | 0.452 | 0.311 | 0.485 | 0.381 | 0.621 | 0.603 | 1.57 | 0.94 | 0.557 | 0.657 | 0.384 | 1.26
0.89 | 0.868 | 0.572 | MFRVQYNSSVD [LRFN1_Y458_Q455R_YF] | 0.769 | 0.49 | 0.477 | 0.439 | 0.597 | 0.415 | 0.931 | 0.424 | 0.406 | 0.908 | 0.349 | 0.552 | 0.386
0.735 | 0.834 | 1.08 | LPIQTYSALNF [DES_Y423] | 1.01 | 14.3 | 11.7 | 2.1 | 2.07 | 11.1 | 1.24 | 13.8 | 18.9 | 1.27 | 15.9 | 1.59 | 8
0.778 | 0.876 | 4.32 | GESQGYDIMEA [MSH2_Y863_P868A] | 0.85 | 0.469 | 0.484 | 0.536 | 0.546 | 0.463 | 0.883 | 0.456 | 0.492 | 0.744 | 0.42 | 0.577 | 0.417
1.2 | 0.643 | 0.532 | INQGPYENRSV [ATP6V1B1_Y462] | 0.558 | 0.381 | 0.568 | 0.421 | 0.441 | 0.4 | 0.622 | 0.38 | 0.423 | 0.47 | 0.38 | 0.475 | 0.435
1.02 | 1.02 | 1.04 | FRDALYKFIVD [PHEX_Y250_M253I_YF] | 1.02 | 0.644 | 0.489 | 0.44 | 0.748 | 0.479 | 1.32 | 0.508 | 0.56 | 0.919 | 0.902 | 0.809 | 0.546
0.696 | 0.631 | 0.423 | FKDFFYCWNTF [AICDA_Y146_YF] | 1.87 | 0.862 | 0.804 | 0.749 | 1.09 | 1.41 | 1.93 | 0.618 | 0.624 | 1.73 | 2.55 | 1.19 | 1.25
1.07 | 0.662 | 0.693 | TDLAFYLVRKG [ASL_Y376_YF] | 1.4 | 0.65 | 0.725 | 0.497 | 0.988 | 0.541 | 1.27 | 0.545 | 0.67 | 0.946 | 0.506 | 0.611 | 0.361
0.775 | 0.491 | 0.429 | DNEFAYLKAII [HNF4A_Y288_YF] | 1.13 | 0.45 | 0.455 | 0.425 | 0.648 | 0.381 | 1.07 | 0.386 | 0.407 | 0.91 | 0.334 | 0.689 | 0.419
0.735 | 0.748 | 0.514 | MYQVQYNSSVD [LRFN1_Y458] | 1.05 | 0.606 | 0.69 | 0.488 | 0.686 | 0.52 | 0.963 | 0.559 | 0.505 | 0.721 | 0.699 | 0.52 | 0.417
0.744 | 1.03 | 0.81 | TVSTRYTQPQP [SARG_Y259] | 0.616 | 0.386 | 0.427 | 0.446 | 0.39 | 0.471 | 0.561 | 0.442 | 0.37 | 0.605 | 0.394 | 0.576 | 0.364
1.18 | 0.721 | 0.866 | SCRSKYVGLWG [KCNQ1_Y184_G179S] | 0.665 | 0.39 | 0.497 | 0.364 | 0.456 | 0.465 | 0.984 | 0.419 | 0.423 | 0.574 | 0.451 | 0.541 | 0.509
0.792 | 0.9 | 0.528 | VSFGEYRFRSV [CFTR_Y515_D513G_YF] | 0.668 | 0.431 | 0.443 | 0.523 | 0.513 | 0.402 | 0.801 | 0.356 | 0.469 | 0.574 | 0.395 | 0.672 | 0.489
